T1: active catalytic domain of MMP 1 (UniProt P03956 100-269, limits assumed)
T1 construct: domain: catalytic domain
T1 sequence (looked up): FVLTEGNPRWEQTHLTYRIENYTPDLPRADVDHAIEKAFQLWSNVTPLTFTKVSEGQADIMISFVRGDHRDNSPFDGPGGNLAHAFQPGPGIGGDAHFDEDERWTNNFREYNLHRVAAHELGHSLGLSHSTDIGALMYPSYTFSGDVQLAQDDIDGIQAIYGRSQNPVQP

T2: active catalytic domain of MMP 7 (UniProt P09237 95-267)
T2 construct: domain: catalytic domain
T2 sequence (looked up): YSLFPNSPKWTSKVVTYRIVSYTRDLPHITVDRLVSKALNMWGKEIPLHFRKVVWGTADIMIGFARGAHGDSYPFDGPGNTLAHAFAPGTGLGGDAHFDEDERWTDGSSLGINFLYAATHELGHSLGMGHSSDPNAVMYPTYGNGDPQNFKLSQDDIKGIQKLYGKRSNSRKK

B1: EGFR-B11 (VHH)
VHH: QVQLQDSGGGLVQAGGSLRLSCAASRFSSAQYAIGWFRQAPGKEREGVSYITFSGGPTGYADSVKGRFTVSRDNAKNTVYLQMNSLKPEDTAVYYCAARPYTRPGSMWVSSLYDNWGQGTQVTVSS
notes: From the internalization selection
B2: MMP-12 P5-29 (VHH)
VHH: QVQLQESGGGLVQAGGSLRLSCAASGRTFTVYTTGWFRQAPGKEREFVAAIDWSGSSTYYTDSVKGRFTISRDNTKNTVYLQMNSLKPEDTAVYYCAARDAIVGVTDTSGYRYWGQGTQVTVSS
notes: Selected on active MMP-12 on nitrocellulose (Hybond-C); also called clone P5-29
B3: MMP-12 P1-44 (VHH)
VHH: QVQLQESGGGLVQPGGSLRLSCAASGFTFNNHWLYWVRQAQGKGLEWVSAINPGGSTVYLDSVKGRFTISRGNTKNTLYLQMNSLKSEDTAVYYCTKAMAWATDWDEYDLWGQGTQVTVSS
notes: Tested as periplasmic extract, detected through its c-myc tag
B4: EGFR-F11 (VHH)
VHH: QVQLQESGGRLVQAGGSLRLSCAASEHTFRGYAIGWFRQAPGKEREFVSSITYDGTLTNYADSVTGRFTISRDNAKNTVYLQMNSLKPEDTAVYVCAAGYSYRYTTLNQYDSWGQGTQVTVSS
notes: From the internalization selection; also called clone EGFR-F11
B5: MMP-12 P1-1 (VHH)
VHH: QVQLQESGGGLVQPGGSLRLSCVASGFTFSDYPMAWVRQAPGKGLEWISVINSGGVNTSYAASVKGRFTISRDNAKNTLFLQMNSLKPEDTAVYYCAKYSLKNEQYWRGQGTQVTVSS
notes: Tested as periplasmic extract, detected through its c-myc tag (pAX004: c-myc and hexahistidine tags)
B6: VHH#3E-His tag (VHH)
VHH: QVQLQESGGGLVQPGGSLRLSCAASGRTFSDHSGYTYTIGWFRQAPKEREFVARIYWSSGNTYYADSVKGRFAISRDIAKNTVDLTMNNLEPEDTAVYYCAARDGIPTSRSVESYNYWGQGTQVTVSS
notes: protein was purified by IMAC; also called TNF3E; VHH TNF3E
B7: MMP-12 P1-26 (VHH)
VHH: QVQLQESGGGLVRAGGSLRLSCVASGRTLSKYRMGWFRQFPGKERELVAEIEWKSSSTWYRDSVKGRFTISRDNAKNTVYLRMNSLKPEDTAVYYCAAATLGEPLVKYTYWGQGTQVTVSS
notes: as for B3
B8: MMP-12 P1-41 (VHH)
VHH: QVQLQDSGGGLVRTGDSLRLSCVVFGGTISTYAMGWFRRAPGKEREFVAAIDASGGFTEYADSVRGRFRIARDNPLSAVYLQMNSLKPEDTAFYYCAADKDRDTVVRFTTTPNEYDYWGQGTQVTVSS
notes: as for B3

Legend:
[1] = biological target: T3, human EGFR expressed on cells (Her-14 mouse fibroblasts; A431 carcinoma cells) (human, UniProt P00533 25-1210); assay: phage ELISA on cells
T3 construct: whole, on cells; Parental NIH3T3 clone 2.2 (3T3) cells served as EGFR-negative control; also called EGFR^+ cells

[2] = biological target: T4, human MMP-12 catalytic domain (human, UniProt P39900 106-263); assay: ELISA / dot blot on immobilized human MMP-12 catalytic domain, periplasmic extract, anti-c-myc detection
T4 construct: domain: catalytic domain; Sources: Prof; H. Tschesche (Universität Bielefeld) and Biomol Research laboratories Inc (SE 138-9090); also called human macrophage elastase
Description: To examine the clones selected using solid phase coated human MMP-12, plates were coated with human MMP-12 catalytic domain at a concentration of 1 μg/ml overnight at 4° C. Plates were washed 5 times with PBS/0.05% Tween-20. Wells were blocked with 1% skimmed milk for 2 hrs at room temperature. Periplasmic extracts (100 μl) were applied to the wells and incubated for 1 hour at room temperature. Plates were washed 5 times with PBS/0.05% Tween-20. Detection was performed using anti-c-myc antibody, followed by anti-mouse-HRP and ABTS/H₂O₂ as substrate. Plates were read at 405 nm after 30 minutes incubation at room temperature.
To examine the clones selected using membrane immobilized human MMP-12, 50 ng human MMP-12 catalytic domain samples were spotted on PVDF membrane as described in the manufacturers guidelines. 50 ng lysozyme was spotted as a negative control. The membranes were blocked with skimmed milk overnight at 4° C., washed 5 times with PBS and transferred to 1.5 ml tubes. Periplasmic extracts (100 μl) were tenfold diluted in 1% skimmed milk and 1 ml was applied per membrane (2 cm²) and rotated for 1 hour at room temperature. Membranes were washed 5 times with PBS/0.05% Tween-20. Detection was performed using anti-c-myc antibody, followed by anti-mouse-HRP and DAP as substrate. Membranes were incubated with substrate at room temperature until clear spots were visible.

[3] = biological target: T5, active catalytic domain of MMP 2 (UniProt P08253 110-452, limits assumed); assay: dot blot, 50 ng catalytic domain on Hybond C-extra, periplasmic extract, anti-c-myc detection
T5 construct: domain: catalytic domain
Description: (§1) In order to check for non specific binding to other MMPs a similar approach was followed in which 50 ng of active catalytic domain of MMP 1, 2, 3, 7, 9 and 13 (all from Biomol Research laboratories Inc) was immobilized on Hybond C-extra. The membranes were blocked with skimmed milk overnight at 4° C., washed 5 times with PBS and transferred to 1.5 ml tubes. Periplasmic extracts (100 μl) were tenfold diluted in 1% skimmed milk and 1 ml was applied per membrane (2 cm²) and rotated for 1 hour at room temperature. Membranes were washed 5 times with PBS/0.05% Tween-20. Detection was performed using anti-c-myc antibody, followed by anti-mouse-HRP and DAP as substrate. Membranes were incubated with substrate at room temperature until clear spots were visible.

[4] = biological target: T6, active catalytic domain of MMP 9 (UniProt P14780 107-444, limits assumed); assay: as above
T6 construct: domain: catalytic domain
Description: as §1

[5] = biological target: T7, active catalytic domain of MMP 3 (UniProt P08254 100-272, limits assumed); assay: as above
T7 construct: domain: catalytic domain
Description: as §1

[6] = biological target: T1, active catalytic domain of MMP 1; assay: as above
Description: as §1

[7] = biological target: T2, active catalytic domain of MMP 7; assay: as above
Description: as §1

[8] = biological target: active catalytic domain of MMP 13 (UniProt P45452 104-274); assay: as above
Description: as §1

[9] = biological target: T8, human TNF-alpha (human, UniProt P01375 77-233); assay: competition ELISA: VHH preincubated with biotinylated TNF-alpha, binding to immobilized receptor extracellular domain
T8 construct: also called TNFα; biotinylated TNF-alpha
Description: 100 μl of this mixture was transferred to a well of a microtiter plate, in which the extracellular domain of the receptor was immobilized.

Binder | binding result [1] | binding result [2] | binding result [3] | binding result [4] | binding result [5] | binding result [6] | binding result [7] | binding result [8] | binding result [9]
B1 | binds |  |  |  |  |  |  |  | 
B2 |  | binds |  |  |  |  |  |  | 
B3 |  | binds | no binding | no binding | no binding | no binding | no binding | no binding | 
B4 | binds |  |  |  |  |  |  |  | 
B5 |  | binds | no binding | no binding | no binding | no binding | no binding | no binding | 
B6 |  |  |  |  |  |  |  |  | binds
B7 |  | binds | no binding | no binding | no binding | no binding | no binding | no binding | 
B8 |  | binds | no binding | no binding | no binding | no binding | no binding | no binding | 

From patent US20110123529A1 (published 2011)
